Drawing on paper PMC9784564 (2022), this text covers IC50 for one molecule.

For this assay, the target named is CoV-2-RBD of the SARS-CoV-2 Inhibitor Screening Kit (SARS-CoV-2, UniProt P0DTC2 319-541). Put plainly: ELISA. On the technique in general: ELISA stands for enzyme-linked immunosorbent assay.

The IC50 is the concentration needed to halve the response being measured. A high value points to weaker potency.

B1: CB79 (antibody, V domains shown)
VH: QVHLVQSGAEVKKPGASVKVSCKASGYTFTDYYMHWVRQAPGQGLEWMGRINPNSGGTNYPETLQGRVTMTTDTSTSTAYLEVRSLTPDDTAVYYCARVPYCSSTSCYSDWYFDLWGQGTLVTVSS
VL: DIVLTQSPLSLPVTPGETASISCRSSQSILDSDDGNTYLDWYLQKPGQSPQLLIYSLSYRASGVPDRFSASGSGTDFTLKISGVEAEDVGVYYCMQRIEFPLTFGGGTKLEIK
Take B1: the IC50 came to 0.14 µg/mL.
